Experimental data taken from article PMC6356862, “A polyextremophilic alcohol dehydrogenase from the Atlantis II Deep Red Sea brine pool” (FEBS Open Bio, 2018).

B1: ADH/A1a (candidate division MSBL1 archaeon SCGC-AAA261F19) (protein)
chain: MKAMQLKEPKPVEQAPLEMVELKEPRPGPKEVKIDVQACGVCHTDLHTVEGELSLPKLPIVPGHEVVGVVEESGDEAEHFEVGDRVGVTWLYSSCGECKFCRRGQENLCEDPMFTGLHADGGYEESMVAKEDFVYPIPKNISDEDAAPLLCAGVIGYRSLRLSEVKPGQRLGLFGFGASAHIVIQLATDMGCEVYVFTRSEEHRRLARELGSAWEGSAKDDPPHRIDSGITFAPVGWIVKEALRDLEKGGTLAINAIHMTPIPELDYDLIYHEKKLRSVANVTREDAEGFLKIAGDIPVQTEVETFPLEEANRALRLLKDSKINGAGVLKVS
notes: N-terminal 20-residue nonsense region of annotated adh/a1 deleted; N-terminal His6-tag; codon-optimized, expressed in Haloferax volcanii H1895 (pTA963); zinc added

How the values were obtained:
[1] = target: Alcohol dehydrogenase/A1a (ADH/A1a) from an uncultured MSBL1 archaeon of the Atlantis II Deep Red Sea brine pool (uncultured MSBL1 (Mediterranean Sea Brine Lake 1) archaeon); assay: native gel or EMSA; Coomassie-stained native PAGE of purified ADH/A1a (Fig. S4); conditions not given
purified protein [2] = substrate: CCO; assay: purified protein; settings: standard oxidation conditions: 3 M KCl, 50 mM glycine/NaOH pH 10.0, 60 °C, 10 mM NAD(P)+, 0.4 mM zinc sulfate, cofactor (NAD+ or NADP+) not specified
purified protein [3] = substrate: OC/C=C/c1ccccc1; assay: purified protein; assay type: biochemical, candidate division MSBL1 archaeon SCGC-AAA261F19; settings: standard oxidation conditions: 3 M KCl, 50 mM glycine/NaOH pH 10.0, 60 °C, 10 mM NAD(P)+, 0.4 mM zinc sulfate, cofactor (NAD+ or NADP+) not specified
purified protein [4] = substrate: CC(C)=CCC/C(C)=C/CO; assay: purified protein; assay type: biochemical, candidate division MSBL1 archaeon SCGC-AAA261F19; settings: standard oxidation conditions: 3 M KCl, 50 mM glycine/NaOH pH 10.0, 60 °C, 10 mM NAD(P)+, 0.4 mM zinc sulfate, cofactor (NAD+ or NADP+) not specified

stoichiometry N [1] | Molecule | Km (purified protein [2]) | Vmax (purified protein [2]) | kcat (purified protein [2]) | kcat/Km (purified protein [2]) | Km (purified protein [3]) | Vmax (purified protein [3]) | kcat (purified protein [3]) | kcat/Km (purified protein [3]) | Km (purified protein [4]) | Vmax (purified protein [4]) | kcat (purified protein [4]) | kcat/Km (purified protein [4])
4 | Alcohol dehydrogenase/A1a (ADH/A1a) from an uncultured MSBL1 archaeon of the Atlantis II Deep Red Sea brine pool (enzyme) |  |  |  |  |  |  |  |  |  |  |  | 
 | B1 | 94430 ± 8400 µM | 0.142 µmol/min/mg | 0.089 s⁻¹ | 0.94 M⁻¹ s⁻¹ | 470 ± 90 µM | 0.237 µmol/min/mg | 0.144 ± 0.009 s⁻¹ | 310 ± 10 M⁻¹ s⁻¹ | 270 ± 40 µM | 0.131 µmol/min/mg | 0.082 ± 0.003 s⁻¹ | 290 ± 18 M⁻¹ s⁻¹
